Data taken from patent publication US20080207501A1 (AMYLIN PHARMACEUTICALS, published 2008).
Ends that are not written are not given here.

Experiments:
[1] = molecular target: calcitonin receptor of CHO cells; experiment: cell-based or functional assay
[2] = molecular target: T1, calcitonin receptor (receptor binding assay); experiment: calcitonin receptor binding assay, method not described
T1 construct: also called rCalcitonin RBA; CT

[3] = molecular target: amylin receptor (nucleus accumbens membranes prepared from rat brain) (rat, UniProt P32214 25-516); experiment: radioligand displacement, 125I-rat amylin, rat nucleus accumbens membranes
Experimental: Male Sprague-Dawley® rats (200-250) grams were sacrificed by decapitation. Brains were removed and place in cold phosphate-buffered saline (PBS). From the ventral surface, cuts were made rostral to the hypothalamus, bounded laterally by the olfactory tracts and extending at a 45° angle medially from these tracts. This basal forebrain tissue, containing the nucleus accumbens and surrounding regions, was weighed and homogenized in ice-cold 20 mM HEPES buffer (20 mM HEPES acid, pH adjusted to 7.4 with NaOH at 23° C.). Membranes were washed three times in fresh buffer by centrifugation for 15 minutes at 48,000×g. The final membrane pellet was resuspended in 20 mM HEPES buffer containing 0.2 mM phenylmethylsulfonyl fluoride (PMSF).
(§1) Solutions were incubated for 60 minutes at 2 C. […] Filters were washed immediately before filtration with 5 ml cold PBS, and immediately after filtration with 15 ml cold PBS. […] Competition curves were generated by measuring binding in the presence of 10⁻¹² to 10⁻⁶ M unlabeled test compound and were analyzed by nonlinear regression using a 4-parameter logistic equation (INPLOT program; […] Software, San Diego, Calif.).

[4] = molecular target: T2, CGRP receptor (membranes prepared from SK-N-MC cells) (UniProt Q16602 23-461; O60894 27-148, limits assumed); experiment: radioligand displacement, 125I-hCGRP, SK-N-MC cell membranes
T2 construct: whole, on cells; Endogenous receptor in SK-N-MC cell membranes; also called CGRP receptors; CGRP RBA
Experimental: as §1

[5] = molecular target: T3, adrenomedullin receptor (receptor binding assay); experiment: adrenomedullin receptor binding assay, method not described
T3 chain 1: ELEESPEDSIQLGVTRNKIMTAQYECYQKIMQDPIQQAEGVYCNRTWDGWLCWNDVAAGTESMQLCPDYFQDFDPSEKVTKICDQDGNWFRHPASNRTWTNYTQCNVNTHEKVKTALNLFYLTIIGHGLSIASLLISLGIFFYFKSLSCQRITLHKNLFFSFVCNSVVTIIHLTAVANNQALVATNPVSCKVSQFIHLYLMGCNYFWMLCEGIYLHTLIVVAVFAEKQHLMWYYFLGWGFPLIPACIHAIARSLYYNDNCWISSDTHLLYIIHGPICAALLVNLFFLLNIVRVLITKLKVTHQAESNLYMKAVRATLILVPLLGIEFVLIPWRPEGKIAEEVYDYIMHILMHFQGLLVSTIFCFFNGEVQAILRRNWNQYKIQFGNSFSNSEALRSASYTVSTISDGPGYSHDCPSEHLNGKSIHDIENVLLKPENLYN
T3 chain 2: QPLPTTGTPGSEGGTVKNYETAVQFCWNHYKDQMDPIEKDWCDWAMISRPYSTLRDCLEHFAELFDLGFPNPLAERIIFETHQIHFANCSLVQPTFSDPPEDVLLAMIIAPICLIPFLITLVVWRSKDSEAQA

[6] = molecular target: T1, calcitonin receptor (receptor binding …); experiment: rCalcitonin RBA, method not described

T2 sequence (O60894 27-148 limits assumed, chain 2 of 2, one chain of several): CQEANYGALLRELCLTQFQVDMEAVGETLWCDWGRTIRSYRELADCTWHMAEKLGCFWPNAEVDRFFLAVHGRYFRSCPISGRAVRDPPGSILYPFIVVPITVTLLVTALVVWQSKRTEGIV
Sequence of amylin receptor (nucleus accumbens membranes prepared from rat brain) (P32214 25-516): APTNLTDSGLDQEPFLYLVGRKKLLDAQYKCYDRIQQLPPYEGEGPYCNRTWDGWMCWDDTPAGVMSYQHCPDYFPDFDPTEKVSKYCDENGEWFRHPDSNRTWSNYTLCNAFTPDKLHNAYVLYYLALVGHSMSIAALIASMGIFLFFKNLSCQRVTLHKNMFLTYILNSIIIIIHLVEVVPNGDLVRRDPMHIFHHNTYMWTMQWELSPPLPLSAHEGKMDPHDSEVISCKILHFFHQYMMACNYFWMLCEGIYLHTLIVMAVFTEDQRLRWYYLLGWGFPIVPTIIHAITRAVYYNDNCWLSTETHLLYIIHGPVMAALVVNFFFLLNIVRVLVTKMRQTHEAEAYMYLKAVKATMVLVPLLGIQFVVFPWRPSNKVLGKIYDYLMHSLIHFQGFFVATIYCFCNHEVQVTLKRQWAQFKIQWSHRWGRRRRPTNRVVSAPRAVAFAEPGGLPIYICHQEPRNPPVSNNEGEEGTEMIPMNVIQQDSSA

EC50, cAMP (AlphaScreen), CHO cells, Average [1] | EC50, cAMP (AlphaScreen), CHO cells, Experiment 1 [1] | EC50, cAMP (AlphaScreen), CHO cells, Experiment 2 [1] | EC50, cAMP (AlphaScreen), CHO cells, Experiment 3 [1] | IC50 [2] | IC50 [3] | IC50 [4] | IC50 [5] | IC50 [6] | Binder
24 nM | 21.6 nM | 30.9 nM | 19.6 nM |  |  |  |  |  | KCNTATCATQRLANFLVRSSNNLGPVLPPTNVGSNTY (peptide, UniProt P12969 38-74, looked up) [rat amylin]
0.097 nM | 0.077 nM |  | 0.075 nM |  |  |  |  |  | CGNLSTCMLGTYTQDFNKFHTFPQTAIGVGAP-NH2 (ends and bridges not checked) [Human Calcitonin]
1740 nM |  | 3600 nM | 622 nM |  |  |  |  |  | Human Adrenomedullin (ends and bridges not checked) peptide: YRQSMNNFQGLRSFGCRFGTCTVQKLAHQIYQFTDKDKDNVAPRSKISPQGY-NH2
 |  |  |  | 17 nM | 8.3 nM | 8.5 nM | 47 nM |  | TQAQLLRVGCNTATCQVQNLSHRLWQLMGPAGRQDSAPVDPSSPHSY-NH2 (ends and bridges not checked) [AFP-6 analog SEQ ID NO: 21]
 |  |  |  |  | 139 nM | 80 nM | 120 nM |  | TQAQLLRVGMVLGTMQVQNLSHRLWQLMGPAGRQDSAPVDPSSPHSY-NH2 [AFP-6 analog SEQ ID NO: 25]
 |  |  |  | 1000 nM | 16 nM | 2.3 nM | 7.1 nM |  | TQAQLLRVGCVLGTCQVQNLSHRLWQLMGPAGRQESAPVEPSSPHSY-NH2 (ends and bridges not checked) [AFP-6 analog SEQ ID NO: 32]
 |  |  |  | 9 nM | 7.5 nM | 111 nM | 1000 nM |  | VGCGNLSTCQVQNLSHRLWQLRQDSAPVDPSSPHSY-NH2 (ends and bridges not checked) [AFP-6 analog SEQ ID NO: 29]
 |  |  |  | 51 nM | 12 nM | 18 nM | 1000 nM |  | GCNTATCQVQNLSHRLWQLRQDSAPVDPSSPHSY-NH2 (ends and bridges not checked) [AFP-6 analog SEQ ID NO: 31]
 |  |  |  | 128 nM | 19 nM | 37 nM | 1000 nM |  | VCNTATCQVQNLSHRLWQLRQDSAPVDPSSPHSY-NH2 (ends and bridges not checked) [AFP-6 analog SEQ ID NO: 30]
 |  |  |  | 121 nM | 39 nM | 130 nM | 1000 nM |  | GCNTATCQVQNLSHRLWQLRQDSAPVEPSSPHSY-NH2 (ends and bridges not checked) [AFP-6 analog SEQ ID NO: 37]
 |  |  |  | 24 nM | 12 nM |  | 6.4 nM |  | VGCVLGTCQVQNLSHRLWQLMGPAGRQDSAPVDPSSPHSY-NH2 (not fully specified; ends and bridges not checked) [Human AFP-6 [8-47]]
 |  |  |  | 153 nM | 17 nM | 4.7 nM | 37 nM |  | VGCVLGTCQVQNLSHRLWQLMGPAGRQDSAPVEPSSPHSY-NH2 (ends and bridges not checked) [AFP-6 analog SEQ ID NO: 35]
 |  |  |  | 24 nM | 18 nM | 3.6 nM | 1000 nM |  | VGCVLGTCQVQNLSHRLWQLRQDSAPVDPSSPHSY-NH2 (ends and bridges not checked) [AFP-6 analog SEQ ID NO: 18]
 |  |  |  |  |  |  | 1000 nM |  | VGMVLGTMQVQNLSHRLWQLRQDSAPVDPSSPHSY-NH2 [AFP-6 analog SEQ ID NO: 27]
 |  |  |  | 198 nM | 39 nM | 14 nM | 1000 nM |  | VGCVLGTCQVQNLSHRLWQLRQDSAPVEPSSPHSY-NH2 (ends and bridges not checked) [AFP-6 analog SEQ ID NO: 36]
 |  |  |  | 17 nM | 9.9 nM | 208 nM |  |  | GCSNLSTCQVQNLSHRLWQLRQDSAPVEPSSPHSY-NH2 (ends and bridges not checked) [AFP-6 analog SEQ ID NO: 38]
 |  |  |  | 31 nM | 14 nM |  | 1000 nM |  | GCGNLSTCQVQNLSHRLWQLRQDSAPVEPSSPHSY-NH2 (ends and bridges not checked) [AFP-6 analog SEQ ID NO: 39]
 |  |  |  |  |  |  | 1000 nM |  | GCVLGTCQVQNLSHRLWQLRQESAPVEPSSPHSY-NH2 (ends and bridges not checked) [AFP-6 analog SEQ ID NO: 40]
 |  |  |  |  | 123 nM |  |  | 33 to 68 nM | r/h Adrenomedullin (ends and bridges not checked; cysteine pairing not given here) peptide: YRQSMNNFQGLRSFGCRFGTCTVQKLAHQIYQFTDKDKDNVAPRSKISPQGY
 |  |  |  | 55 nM | 5.1 nM | 1.4 nM | 7.1 nM |  | RVGCVLGTCQVQNLSHRLWQLMGPAGRQDSAPVDPSSPHSY-NH2 (ends and bridges not checked) [AFP-6 analog SEQ ID NO: 10]
 |  |  |  | 27 nM | 7.7 nM | 0.93 nM | 11 nM |  | GCVLGTCQVQNLSHRLWQLMGPAGRQDSAPVDPSSPHSY-NH2 (ends and bridges not checked) [AFP-6 analog SEQ ID NO: 11]
 |  |  |  |  | 48 nM | 26 nM | 37 nM |  | GMVLGTMQVQNLSHRLWQLMGPAGRQDSAPVDPSSPHSY-NH2 [AFP-6 analog SEQ ID NO: 26]
 |  |  |  | 198 nM | 9.8 nM | 2.2 nM | 18 nM |  | CVLGTCQVQNLSHRLWQLMGPAGRQDSAPVDPSSPHSY-NH2 (ends and bridges not checked) [AFP-6 analog SEQ ID NO: 12]
 |  |  |  |  |  |  | 59 nM |  | VQNLSHRLWQLMGPAGRQDSAPVDPSSPHSY-NH2 [AFP-6 analog SEQ ID NO: 14]
 |  |  |  | 22 nM | 21 nM | 1.5 nM | 1000 nM |  | TQAQLLRVGCVLGTCQVQNLSHRLWQLRQDSAPVDPSSPHSY-NH2 (ends and bridges not checked) [AFP-6 analog SEQ ID NO: 16]
 |  |  |  |  | 209 nM | 10.5 nM | 304 nM |  | TQAQLLRVGCVLGTCQVQNLSHRLWQLDSAPVDPSSPHSY-NH2 (ends and bridges not checked) [AFP-6 analog SEQ ID NO: 17]
 |  |  |  | 247 nM | 29 nM | 12.7 nM | 1000 nM |  | CVLGTCQVQNLSHRLWQLRQESAPVEPSSPHSY-NH2 (ends and bridges not checked) [AFP-6 analog SEQ ID NO: 19]
 |  |  |  | 16 nM | 1.9 nM | 25 nM | 36 nM |  | TQAQLLRVGCSNLSTCQVQNLSHRLWQLMGPAGRQDSAPVDPSSPHSY-NH2 (ends and bridges not checked) [AFP-6 analog SEQ ID NO: 20]
